Laboratory results reported in patent US6649409.
“And” between values parts separate entries of the source, which are not always exact repeats. Equal entries are not always repeated.

Key:
[1] = target: HIV-1 BX08 envelope glycoprotein gp160 expressed from the synthetic gene syn.gp160BX08 (HIV-1 BX08); assay: flow cytometry (FACS) on transfected 293 cells, mean of duplicates
[2] = target: HIV-1 BX08 envelope glycoprotein gp160 expressed from the wild type gene wt.gp160BX08 (HIV-1 BX08); assay: as above
[3] = target: HIV-1 BX08 envelope glycoprotein gp160 expressed from the synthetic gene syn.gp160BX08 (HIV-1 BX08); assay: flow cytometry (FACS) on transfected 293 cells, PE-labelled rat anti-mouse IgG1 as secondary
[4] = target: HIV-1 BX08 envelope glycoprotein gp160 expressed from the wild type gene wt.gp160BX08 (HIV-1 BX08); assay: as above

Substance: mouse monoclonal IgG antibody to HIV gp120 (NEA-9301, NEN Life Science Products Inc., Boston)
- mean % of cells stained [1]: 48%
- mean % of cells stained [2]: 11%
- % of cells stained (C: Primary Ab and secondary Ab added) [3]: 36.9% and 58.4%
- % of cells stained, C-A (less control without primary antibody) [3]: 34.3% and 55.6%
- % of cells stained, C-B (less autofluorescence control) [3]: 34.1% and 56.3%
- % of cells stained (C: Primary Ab and secondary Ab added) [4]: 14.4% and 7.51%
- % of cells stained, C-A (less control without primary antibody) [4]: 11.4% and 5.56%
- % of cells stained, C-B (less autofluorescence control) [4]: 13% and 5.99%
